Results from publication PMC10781510.

Molecular target: HIS-MBP-GASZ-ΔMLS (mouse)
Assay: native gel or EMSA; native PAGE of gel-filtration fraction 5, non-reducing and non-denaturing sample buffer (50 mM Tris pH 7.6, 100 mM NaCl, 0.01% DDM), with or without 2% SDS in the loading buffer, Coomassie blue; monomer to dimer

stoichiometry N: 2
Substance: HIS-MBP-GASZ-ΔMLS (domain or fragment)
